Laboratory results taken from patent US20050058645A1.

How the values were obtained:
[1] = biological target: T1, FLAG-tagged IL-4Rα-gp130 chimeric receptor; test: cell-based or functional assay
T1 sequence: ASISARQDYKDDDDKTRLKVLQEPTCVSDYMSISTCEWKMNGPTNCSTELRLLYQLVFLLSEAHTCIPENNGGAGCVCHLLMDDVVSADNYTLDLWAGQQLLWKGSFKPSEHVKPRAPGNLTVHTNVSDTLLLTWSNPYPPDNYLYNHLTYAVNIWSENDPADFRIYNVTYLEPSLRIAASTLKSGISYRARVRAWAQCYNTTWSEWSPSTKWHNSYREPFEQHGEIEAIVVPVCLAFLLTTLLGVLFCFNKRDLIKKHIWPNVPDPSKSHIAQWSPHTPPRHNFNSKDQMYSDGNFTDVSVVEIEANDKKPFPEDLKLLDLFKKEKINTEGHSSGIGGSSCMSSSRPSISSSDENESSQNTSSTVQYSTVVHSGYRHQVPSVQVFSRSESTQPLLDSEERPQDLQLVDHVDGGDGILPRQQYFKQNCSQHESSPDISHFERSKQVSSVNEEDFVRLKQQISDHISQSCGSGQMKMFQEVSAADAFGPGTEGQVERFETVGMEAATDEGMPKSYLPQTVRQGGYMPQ

[2] = biological target: FLAG-tagged IL-13Rα1-gp130 chimeric receptor (human); test: cell-based or functional assay

Sequence of IL-4 (species not stated) (ligand) (P05112 25-153): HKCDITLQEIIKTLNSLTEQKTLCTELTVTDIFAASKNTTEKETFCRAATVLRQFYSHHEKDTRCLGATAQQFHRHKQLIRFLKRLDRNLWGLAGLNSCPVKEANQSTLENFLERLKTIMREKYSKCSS

Substance | 50% of maximal activity, STAT-3 luciferase reporter, lines 3.1.2 and 3.2.4 [1] [ng/mL] | 50% of maximal activity, STAT-3 luciferase reporter, lines 3.1.2 and 3.2.4 [2] [pg/mL]
IL-4 (species not stated) (ligand) | 2 to 4 | 
IL-13 (species not stated) (ligand) |  | 100 to 200
